Experimental data from article PMC7117682 (2020).

Target: CD47 naturally expressed on CD47(+) Jurkat T lymphoma cells (human (endogenous in Jurkat), UniProt Q08722 19-323)
Experiment: FACS

Sequence of CD47 naturally expressed on CD47(+) Jurkat T lymphoma cells (Q08722 19-323): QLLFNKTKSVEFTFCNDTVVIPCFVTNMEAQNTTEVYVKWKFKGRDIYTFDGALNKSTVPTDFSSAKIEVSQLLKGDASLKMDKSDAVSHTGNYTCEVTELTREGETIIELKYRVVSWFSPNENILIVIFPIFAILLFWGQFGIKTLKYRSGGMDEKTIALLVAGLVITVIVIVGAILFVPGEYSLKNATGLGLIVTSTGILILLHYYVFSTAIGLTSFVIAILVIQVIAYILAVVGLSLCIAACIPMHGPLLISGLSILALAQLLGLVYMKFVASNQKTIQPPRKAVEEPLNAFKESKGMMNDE

B1: SIRPα-Avi-biotin (soluble, biotin-conjugated SIRPα d1 construct; allelic variant not stated for the experiment) (domain or fragment)
chain: EELQVIQPDKSVLVAAGETATLRCTATSLIPVGPIQWFRGAGPGRELIYNQKEGHFPRVTTVSDLTKRNNMDFSIRIGNITPADAGTYYCVKFRKGSPDDVEFKSG
modifications: biotin (biotin-conjugated, SIRPα-Avi-biotin)
- EC50: 2000 nM
